Reference: patent US20260209325A1 (SCHOLAR ROCK, published 2026)
Read-outs that look alike come from different tables or passages of the source. Blank lines part the entries; values can stand above or below the binder they belong to.

What was measured:
[1] = biological target: T1, recombinant human latent myostatin (human, UniProt O14793 24-375, biotinylated (in the Octet pH assay only)); assay: BLI (Octet Red384): streptavidin biosensors loaded with biotinylated human latent myostatin, antibody association 300 s, dissociation in PBS at pH 7.4 or pH 5.5
T1 construct: also called biotinylated human latent myostatin
Protocol: (§1) Binding was performed at pH 7.4 and dissociation at pH 5.5 in an Octet Red384@assay. Streptavidin biosensors were baselined in 1x kinetics buffer (KB) (Sartorius) for one minute, then loaded with 100 nM biotinylated human latent myostatin for five minutes, followed by another baseline step of one minute in 1x KB. Binding of test antibodies was performed for five minutes and then dissociation was performed in PBS at either pH 7.4 or pH 5.5 for five minutes. Analysis was performed using a partial fit, in which full dissociation was projected. Kd at pH 5.5 was divided by Kd at pH 7.4 to calculate pH sensitivity.

[2] = biological target: T1, recombinant human latent myostatin; assay: cell-based or functional assay
[3] = biological target: T1, recombinant human latent myostatin; assay: cell-based or functional assay; remark: listed apart in the source
[4] = biological target: T2, human pro-myostatin (human, UniProt O14793 24-375, biotinylated (in the SPR assay)); assay: cell-based or functional assay
[5] = biological target: T1, recombinant human latent myostatin; assay: cell-based or functional assay; remark: listed apart in the source
[6] = biological target: T2, human pro-myostatin; assay: SPR Biacore 8K, biotin-antigen captured
[7] = biological target: T3, cyno pro-myostatin (cynomolgus monkey, Biotinylated for capture in the SPR assay (site not stated). The native form is a disulfide-linked homodimer, partly furin-cleaved; one chain is given.); assay: SPR Biacore 8K, biotin-antigen captured
T3 construct: also called proGDF8 (cynomolgus); cynomolgus monkey pro-myostatin

[8] = biological target: T4, murine pro-myostatin (mouse, UniProt O08689 25-376, biotinylated (in the SPR assay)); assay: SPR Biacore 8K, biotin-antigen captured
T4 construct: also called proGDF8 (mouse); mouse pro-myostatin

[9] = biological target: T1, recombinant human latent myostatin; assay: BLI (Octet Red384): streptavidin biosensors loaded with biotinylated human latent myostatin, antibody association 300 s, dissociation in PBS at pH 7.4 or pH 5.5; remark: listed apart in the source
Protocol: as §1

[10] = biological target: T2, human pro-myostatin; assay: Ab KD, summary Table 11; method and antigen not stated there
[11] = biological target: T4, murine pro-myostatin; assay: plate binding assay, absorbance at 450 nm, antibody titrated 100 to about 0.002 nM, panel 'Murine Pure Pro-GDF-8' (method not described in the text)
[12] = biological target: T3, cyno pro-myostatin; assay: plate binding assay, absorbance at 450 nm, antibody titrated 100 to about 0.002 nM, panel 'Cyno Pure Pro-GDF-8' (method not described in the text)
[13] = biological target: T2, human pro-myostatin; assay: plate binding assay, absorbance at 450 nm, antibody titrated 100 to about 0.002 nM, panel 'Human Pure Pro-GDF-8' (method not described in the text)
[14] = biological target: mouse GDF-11 (mouse, UniProt Q9Z1W4 297-405, limits assumed); assay: plate binding assay, OD 450 nm, one antibody concentration that is not given, on Mu-GDF-11 (method not described in the text)
mouse GDF-11, sequence (Q9Z1W4 297-405 limits assumed): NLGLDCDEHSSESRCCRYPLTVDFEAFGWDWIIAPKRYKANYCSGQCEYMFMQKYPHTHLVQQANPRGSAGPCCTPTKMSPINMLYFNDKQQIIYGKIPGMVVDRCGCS

[15] = biological target: human GDF-11 (human, UniProt O95390 299-407, limits assumed); assay: plate binding assay, OD 450 nm, one antibody concentration that is not given, on Hu-GDF-11 (method not described in the text)
human GDF-11, sequence (O95390 299-407 limits assumed): as the sequence (Q9Z1W4 297-405 limits assumed) above

[16] = biological target: T2, human pro-myostatin; assay: plate binding assay, OD 450 nm, antibody titrated 0.0003 to 100 nM, panel 'Hu-Pro-GDF-8 Plate 1' (method not described in the text)
[17] = biological target: T4, murine pro-myostatin; assay: plate binding assay, OD 450 nm, antibody titrated 0.0003 to 100 nM, panel 'Mu-Pro-GDF-8 Plate 1' (method not described in the text)
[18] = biological target: T2, human pro-myostatin; assay: plate binding assay, OD 450 nm, antibody titrated 0.0003 to 100 nM, panel 'Hu-Pro-GDF-8 Plate 2' (method not described in the text)
[19] = biological target: T3, cyno pro-myostatin; assay: plate binding assay, OD 450 nm, antibody titrated 0.0003 to 100 nM, panel 'Cyno-Pro-GDF-8 Plate 2' (method not described in the text)
[20] = biological target: T4, murine pro-myostatin; assay: plate binding assay, OD 450 nm, antibody titrated 0.0003 to 100 nM, panel 'Mu-Pro-GDF-8 Plate 2' (method not described in the text)

B1: Ab109 (antibody, human IgG4 S228P, kappa, V domains shown)
VH: EVQLVESGGGLVQPGGSLRLSCAASGFTFSSYGMSWVRQAPGKGLELVASFTGSGGTYYPDSVKGRFTISRDNAKNSLYLQMNSLRAEDTAVYYCARDLLIRFLEWSHYYGMDVWGQGTTVTVSS
VL: DIVMTQSPLSLPVTPGEPASISCRSSQSLLHSSGHNFLHWYLQKPGQSPQLLIYEVSNRVSGVPDRFSGSGSGTDFTLKISRVEAEDVGVYYCMQQTQYPPTFGGGTKVEIKR
notes: human IgG4 in the EM experiment; also called Ab109 Human IgG4
fold difference in off-rate (Kd at pH 5.5 / Kd at pH 7.4) [1]: 18.4 fold
IC50 of inhibition of myostatin activation by mTLL-2 (functional ELISA, FIG. 1A) [2]: 380 pM
IC50 of inhibition of myostatin activation by mTLL-2 (functional ELISA, FIG. 1B) [2]: 330 pM
IC50 (nM) Latent + mTLL2 [3]: 0.145 nM
IC50 (nM) Pro + Furin [4]: 0.214 nM
mTLL2 IC50 [5]: 145 pM
Kd [6]: 138 pM
kon [6]: 6.62e+06 M⁻¹ s⁻¹
Kd [7]: 128 pM
koff [7]: 0.000925 s⁻¹
kon [7]: 7.23e+06 M⁻¹ s⁻¹
Kd [8]: 197 pM
koff [8]: 0.00134 s⁻¹
kon [8]: 6.81e+06 M⁻¹ s⁻¹
fold difference in off-rate (Kd at pH 5.5 / Kd at pH 7.4) [9]: 25 fold
Kd [10]: 579 pM

B2: Ab104 (antibody, human IgG4 S228P, kappa, V domains shown)
VH: EVQLVESGGGLVQPGGSLRLSCAASGSAFSSYGMSWVRQAPGKGLELVASINSNGGSTYYPDSVKGRFTISRDNAKNSLYLQMNSLRAEDTAVYYCARDLLVKFLSWSHYYGMDVWGQGTTVTVSS
VL: B1 VL
EC50 (read off the curve) [11]: ~600 pM
EC50 (read off the curve) [12]: ~700 pM
IC50 (nM) Latent + mTLL2 [3]: 0.22 nM
IC50 (nM) Pro + Furin [4]: 0.363 nM
Kd [6]: 100 pM
koff [6]: 0.000381 s⁻¹
kon [6]: 3.82e+06 M⁻¹ s⁻¹
Kd [7]: 76 pM
koff [7]: 0.000322 s⁻¹
kon [7]: 4.21e+06 M⁻¹ s⁻¹
Kd [8]: 145 pM
koff [8]: 0.000518 s⁻¹
kon [8]: 3.58e+06 M⁻¹ s⁻¹
EC50 (read off the curve) [13]: ~500 pM

B4: Ab121 (antibody, human IgG4 S228P, kappa, V domains shown)
VH: QVTLRESGPALVKPTQTLTLTCTVSGFSFSTSGMVVNWIRQPPGKALEWLAMIDWDADNIVYNSALKSRLTISKDTSKNQVVLTMTNMDPVDTATYYCAKDTGSGWFDAFDIWGQGTMVTVSS
VL: DIVMTQSPDSLAVSLGERATINCKSSQSVLYSSTNQNFLAWYQQKPGQPPKLLIYQASTLQNGVPDRFSGSGSGTDFTLTISSLQAEDVAVYYCQQYLTTPYTFGGGTKVEIKR
IC50 (nM) Latent + mTLL2 [3]: 0.386 nM
IC50 (nM) Pro + Furin [4]: 0.143 nM
Kd [6]: 101 pM
koff [6]: 0.000318 s⁻¹
kon [6]: 3.16e+06 M⁻¹ s⁻¹
Kd [7]: 106 pM
koff [7]: 0.000365 s⁻¹
kon [7]: 3.45e+06 M⁻¹ s⁻¹
Kd [8]: 187 pM
koff [8]: 0.000608 s⁻¹
kon [8]: 3.24e+06 M⁻¹ s⁻¹
EC50 (read off the curve) [18]: ~200 pM
EC50 (read off the curve) [19]: ~200 pM
EC50 (read off the curve) [20]: ~200 pM

Further lines, results first:

binding result [14]: no binding
binding result [15]: no binding
EC50 (read off the curve) [16]: ~200 pM
EC50 (read off the curve) [17]: ~400 pM
B3: Ab113 (antibody, human IgG4 S228P, kappa, V domains shown)
VH: QVQLVQSGAEVKKPGASVKVSCKVSGYLLTELSIHWVRQAPGKGLEWMGGIIPSFGTAIYAQKFQGRVTMTEDTSTDTAYMELSSLKSEDTAVYYCAISYSGFDLLPLDKWGQGTLVTVSS
VL: DIQMTQSPSSVSASVGDRVTITCRASQHISTWLAWYQQKPGKAPKLLIYYASSLQGGVPSRFSGSGSGTDFTLTISSLQPEDFANYYCLQTYTYPRTFGGGTKVEIKR

binding result [14]: no binding
binding result [15]: no binding
binding result [16]: binds
binding result [17]: binds
B5: Ab111 (antibody, human IgG4 S228P, kappa, V domains shown)
VH: QVQLVQSGAEVKKPGASVKVSCKVSGYTFTSNDIHWVRQAPGKGLEWMGGIFPIFGTTIYAQKFQGRVTMTEDTSTDTAYMELSSLKSEDTAVYYCAREGLGYDFDYWGQGTLVTVSS
VL: DIQMTQSPSSVSASVGDRVTITCRASQNIGNWLAWYQQKPGKAPKLLIYSASALQSGVPSRFSGSGSGTDFTLTISSLQPEDFANYYCQQSYGAPMYSFGGGTKVEIKR
